Assay results: US20250346589A1, “RADIOISOTOPE LABELED SSTR2-AGONISTS WITH LINKERS” (Erasmus University Medical Center Rotterdam, priority 2022, published 2025)

How the values were obtained:
[1] = in vitro; assay type: in vitro ADME; conditions: for remaining at 1 h / remaining at 4 h / remaining at 24 h: mouse, serum, Stability in mouse serum (%)
Method: The ^203Pb-labelled compounds (˜2 MBq) or the ^212Pb-labelled compounds (˜70 kBq) were incubated in 300 μL of phosphate buffered saline (PBS; 0.1 M, pH 7.4) or mouse serum at 37° C. Stability of the radiolabed peptides was monitored at 1, 4 and 24 h post incubation. The samples in PBS were directly analyzed by radio-HPLC without any pretreatment. However, samples in mouse serum were mixed with an equal volume of acetonitrile to precipitate the proteins. The solution was centrifuged twice for 5 min at 13,000 rpm, and the supernatant was analyzed by radio-HPLC using Method 1 for lead-203 and Method 2 for lead-212.

[2] = tested on: H69-tumor xenograft and organs; set-up: species or system mice; conditions: mouse, in vivo, iv
Method: Six-week-old male Balb/c nu/nu-specific and opportunistic pathogen-tree (SOPF) mice (Janvier Labs, Le Genest-Saint-Isle, France) were housed in individually ventilated cages, with 4 mice per cage. Upon arrival, mice were acclimated for 1 week, with access to food and water ad libitum. Mice were subcutaneously inoculated on the right shoulder with NCI-H69 cells (5×10^6 cells suspended in 100 μL of ⅓ Matrigel (Corning Inc., Corning, NY, USA) and ⅔ Hank's balanced salt solution (Gibco). NCI-H69 xenografts were allowed to grow for 3 weeks. Tumor sizes were 391±173 mm^3 at the start of the studies. All animal experiments were approved by the Animal Welfare Committee of the Erasmus MC and were conducted in agreement with institutional guidelines (license number: AVD101002017867).
Biodistribution studies were performed to determine tumor and organ uptake of [^212Pb]Pb-DOTAMTATE, [^212Pb]Pb-DOTAM-Amcha-TATE or [^212Pb]Pb-DOTAM-Pip-TATE. Animals (n=4 for each time point and each compound) were injected intravenously with an average of 100 kBq/0.5 nmol at t=0. At 3 selected time points (1, 4 and 24 h) p.i. blood was collected via cardiac puncture under isoflurane/O2 anesthesia, after which the mice were sacrificed. The tumor and organs of interest (prostate, pancreas, spleen, liver, GI tract (stomach, small intestine, large intestine), kidneys, lungs, heart, muscle, bone and tail) were excised, washed in PBS and blotted dry. To confirm receptor specificity of the 3 radiotracers uptake, NCI-H69-xenografted mice were co-injected with [212Pb] Pb-DOTAMTATE, [^212Pb]Pb-DOTAM-Amcha-TATE or [^212Pb]Pb-DOTAM-Pip-TATE plus an excess (25 nmol) of the respective unlabelled peptide (n=3), after which tumor and organ uptake was determined at 24 h p.i. The blood, tumor, and relevant organs were weighed and measured in a γ-counter. To determine the total injected radioactivity per animal, calibration curve with lead-212 was determined. The percentage of injected dose per gram (% ID/g) was determined for each tissue sample and corrected for both the injected volume and % ID present at the injection site (the tail). […] Pb-DOTAMTATE. In Table 3, the absorbed dose per administered activity (Gy/MBq; with RBE=5) in H69-tumor xenograft and organs for [^212Pb]Pb-DOTAM-TATE, [^212Pb]Pb-DOTAM-Amcha-TATE and [^212Pb]Pb-DOTAM-Pip-TATE is given.

Compound | Stability in mouse serum (%) ([1]; 1 h) | Stability in mouse serum (%) ([1]; 4 h) | Stability in mouse serum (%) ([1]; 24 h) | remaining at 1 h [1] [%] | remaining at 4 h [1] [%] | remaining at 24 h [1] [%] | other results
C[C@@H](O)[C@H](NC(=O)[C@@H]1CSSC[C@H](NC(=O)[C@@H](Cc2ccccc2)NC(=O)[C@H]2CC[C@H](CNC(=O)CN3CCN(CC(N)=O)CCN(CC(N)=O)CCN(CC(N)=O)CC3)CC2)C(=O)N[C@@H](Cc2ccc(O)cc2)C(=O)N[C@H](Cc2c[nH]c3ccccc23)C(=O)N[C@@H](CCCCN)C(=O)N[C@@H]([C@@H](C)O)C(=O)N1)C(=O)O [[^203Pb]Pb-DOTAM-Amcha-TATE] [metal not drawn] | 100 | 100 | 100 | – | – | – | –
C[C@@H](O)[C@H](NC(=O)[C@@H]1CSSC[C@H](NC(=O)[C@@H](Cc2ccccc2)NC(=O)[C@H]2CC[C@H](CNC(=O)CN3CCN(CC(N)=O)CCN(CC(N)=O)CCN(CC(N)=O)CC3)CC2)C(=O)N[C@@H](Cc2ccc(O)cc2)C(=O)N[C@H](Cc2c[nH]c3ccccc23)C(=O)N[C@@H](CCCCN)C(=O)N[C@@H]([C@@H](C)O)C(=O)N1)C(=O)O [[^212Pb]Pb-DOTAM-Amcha-TATE] [metal not drawn] | – | – | – | – | – | – | Absorbed dose per administered activity, Kidneys [2]: 121.73 ± 14.57 Gy/MBq; Absorbed dose per administered activity, Large Intestines [2]: 2.03 ± 0.26 Gy/MBq; Absorbed dose per administered activity, Liver [2]: 9.03 ± 2.24 Gy/MBq; Absorbed dose per administered activity, Lung [2]: 3.20 ± 0.40 Gy/MBq; Absorbed dose per administered activity, Pancreas [2]: 5.40 ± 0.14 Gy/MBq; Absorbed dose per administered activity, Spleen [2]: 0.73 ± 0.19 Gy/MBq; Absorbed dose per administered activity, Stomach wall [2]: 5.78 ± 0.77 Gy/MBq; Absorbed dose per administered activity, Tumor [2]: 35.49 ± 9.89 Gy/MBq
C[C@@H](O)[C@H](NC(=O)[C@@H]1CSSC[C@H](NC(=O)[C@@H](Cc2ccccc2)NC(=O)CN2CCN(CC(N)=O)CCN(CC(N)=O)CCN(CC(N)=O)CC2)C(=O)N[C@@H](Cc2ccc(O)cc2)C(=O)N[C@H](Cc2c[nH]c3ccccc23)C(=O)N[C@@H](CCCCN)C(=O)N[C@@H]([C@@H](C)O)C(=O)N1)C(=O)O [[^212Pb]Pb-DOTAM-TATE, metal not drawn, reference compound] | – | – | – | 99 | 99 | 97 | –
C[C@@H](O)[C@H](NC(=O)[C@@H]1CSSC[C@H](NC(=O)[C@@H](Cc2ccccc2)NC(=O)CN2CCN(CC(N)=O)CCN(CC(N)=O)CCN(CC(N)=O)CC2)C(=O)N[C@@H](Cc2ccc(O)cc2)C(=O)N[C@H](Cc2c[nH]c3ccccc23)C(=O)N[C@@H](CCCCN)C(=O)N[C@@H]([C@@H](C)O)C(=O)N1)C(=O)O [[^212Pb]Pb-DOTAM-TATE] [metal not drawn, reference compound] | – | – | – | – | – | – | Absorbed dose per administered activity, Kidneys [2]: 140.03 ± 17.95 Gy/MBq; Absorbed dose per administered activity, Large Intestines [2]: 1.64 ± 0.30 Gy/MBq; Absorbed dose per administered activity, Liver [2]: 6.93 ± 0.64 Gy/MBq; Absorbed dose per administered activity, Lung [2]: 2.06 ± 0.29 Gy/MBq; Absorbed dose per administered activity, Pancreas [2]: 3.65 ± 0.28 Gy/MBq; Absorbed dose per administered activity, Spleen [2]: 0.56 ± 0.14 Gy/MBq; Absorbed dose per administered activity, Stomach wall [2]: 4.42 ± 1.30 Gy/MBq; Absorbed dose per administered activity, Tumor [2]: 26.61 ± 19.27 Gy/MBq
C[C@@H](O)[C@H](NC(=O)[C@@H]1CSSC[C@H](NC(=O)[C@@H](Cc2ccccc2)NC(=O)CN2CCC(NC(=O)CN3CCN(CC(N)=O)CCN(CC(N)=O)CCN(CC(N)=O)CC3)CC2)C(=O)N[C@@H](Cc2ccc(O)cc2)C(=O)N[C@H](Cc2c[nH]c3ccccc23)C(=O)N[C@@H](CCCCN)C(=O)N[C@@H]([C@@H](C)O)C(=O)N1)C(=O)O [[^212Pb]Pb-DOTAM-Pip-TATE, metal not drawn] | – | – | – | 99 | 99 | 96 | –
C[C@@H](O)[C@H](NC(=O)[C@@H]1CSSC[C@H](NC(=O)[C@@H](Cc2ccccc2)NC(=O)[C@H]2CC[C@H](CNC(=O)CN3CCN(CC(N)=O)CCN(CC(N)=O)CCN(CC(N)=O)CC3)CC2)C(=O)N[C@@H](Cc2ccc(O)cc2)C(=O)N[C@H](Cc2c[nH]c3ccccc23)C(=O)N[C@@H](CCCCN)C(=O)N[C@@H]([C@@H](C)O)C(=O)N1)C(=O)O [[^212Pb]Pb-DOTAM-Amcha-TATE, metal not drawn] | – | – | – | 96 | 96 | 93 | –
C[C@@H](O)[C@H](NC(=O)[C@@H]1CSSC[C@H](NC(=O)[C@@H](Cc2ccccc2)NC(=O)CN2CCN(CC(N)=O)CCN(CC(N)=O)CCN(CC(N)=O)CC2)C(=O)N[C@@H](Cc2ccc(O)cc2)C(=O)N[C@H](Cc2c[nH]c3ccccc23)C(=O)N[C@@H](CCCCN)C(=O)N[C@@H]([C@@H](C)O)C(=O)N1)C(=O)O [[^203Pb]Pb-DOTAM-TATE] [metal not drawn, reference compound] | 99 | 99 | 99 | – | – | – | –
C[C@@H](O)[C@H](NC(=O)[C@@H]1CSSC[C@H](NC(=O)[C@@H](Cc2ccccc2)NC(=O)CN2CCC(NC(=O)CN3CCN(CC(N)=O)CCN(CC(N)=O)CCN(CC(N)=O)CC3)CC2)C(=O)N[C@@H](Cc2ccc(O)cc2)C(=O)N[C@H](Cc2c[nH]c3ccccc23)C(=O)N[C@@H](CCCCN)C(=O)N[C@@H]([C@@H](C)O)C(=O)N1)C(=O)O [[^203Pb]Pb-DOTAM-Pip-TATE] [metal not drawn] | 97 | 97 | 97 | – | – | – | –
